# Reference: FireProtDB (doi:10.1021/bi982427c)
# B1: Acyl-CoA-binding protein, P07107 (parent)
# chain: MSQAEFDKAAEEVKHLKTKPADEEMLFIYSHYKQATVGDINTERPGMLDFKGKAKWDAWNELKGTSKEDAMKAYIDKVEELKKKYGI
# Variants of: B1
# Conditions: Bos taurus; pH 5.3; 5 °C; GdnHCl; Fluorescence; Sodium acetate 0.02 M; reversible: yes; structure 2ABD; whole UniProt chain shown
Variant,ddG of mutation (higher = less stable) [kcal/mol],unfolding free energy [kcal/mol]
T36A,1.09,6.8
P45A,1.4,6.49
L16A,3.1,4.79
L81A,3.7,4.19
Q34A,3.66,4.23
A35G,1.57,6.32
E68A,0.36,7.53
Y32N,1.52,6.37
K55A,0.86,7.03
V78A,1.14,6.75
K53M,-0.18,8.07
D22A,-0.42,8.31
D22H,0.56,7.33
Y74F,-0.27,8.16
Y74A,4.83,3.06
F6A,2.52,5.37
Y29F,1.06,6.83
Y29A,2.47,5.42
L26A,1.02,6.87
V13A,1.69,6.2
P20A,1.07,6.82
K53M K55M,-1.01,8.9
K33R,1.83,6.06
K33A,1.02,6.87
K33E,1.68,6.21
